Experimental data published in the supplement of paper PMC7125110.
± gives the standard error. For some of these results: This sample holds only a part of the variants without activity.

B1: glmS ribozyme (parent)
chain: AUAAAAGCGCCAGAACUACAGAAAUGUAGUUGACGAGGAGGAGGUUUAUCGAAUUUUCGGCGGAUGCCUCCAAA

Assays:
Details in all cases: with glucosamine-6-phosphate
glucosamine-6-phosphate [1] = variants of: B1; experiment: kcat; higher = faster cleavage; RNA array
Outline: (§1)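 Weighted Michaelis–Menten fits across concentrations supplied kcat and KM, based on kobs from one- or two-exponential decay fits to normalised per-tile medians. The data came from barcoded ribozyme variants transcribed in situ by E. coli RNA polymerase on sequenced MiSeq chips and tracked at 37 °C by a hybridised Cy3 probe. Glucosamine-6-phosphate (40 μM to 10 mM) in HEPES/KCl/Mg(OAc)2 buffer was flowed in.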

glucosamine-6-phosphate [2] = variants of: B1; experiment: self-cleavage kobs at 2500 uM GlcN6P; higher = faster cleavage; RNA array
Outline: as §1

glucosamine-6-phosphate [3] = variants of: B1; experiment: self-cleavage kobs at 40 uM GlcN6P; higher = faster cleavage; RNA array
Outline: as §1

glucosamine-6-phosphate [4] = variants of: B1; experiment: KM; higher = weaker cofactor use; RNA array
Outline: as §1

glucosamine-6-phosphate [5] = variants of: B1; experiment: self-cleavage kobs at 160 uM GlcN6P; higher = faster cleavage; RNA array
Outline: as §1

glucosamine-6-phosphate [6] = variants of: B1; experiment: self-cleavage kobs at 640 uM GlcN6P; higher = faster cleavage; RNA array
Outline: as §1

glucosamine-6-phosphate [7] = variants of: B1; experiment: self-cleavage kobs at 10000 uM GlcN6P; higher = faster cleavage; RNA array
Outline: as §1

Row | Variant | kcat (glucosamine-6-phosphate [1]) [s⁻¹] | self-cleavage kobs at 2500 uM GlcN6P (glucosamine-6-phosphate [2]) [s⁻¹] | self-cleavage kobs at 40 uM GlcN6P (glucosamine-6-phosphate [3]) [s⁻¹] | KM (glucosamine-6-phosphate [4]) [µM] | self-cleavage kobs at 160 uM GlcN6P (glucosamine-6-phosphate [5]) [s⁻¹] | self-cleavage kobs at 640 uM GlcN6P (glucosamine-6-phosphate [6]) [s⁻¹] | self-cleavage kobs at 10000 uM GlcN6P (glucosamine-6-phosphate [7]) [s⁻¹]
1 | G51C U69G | 1.7e-05 ± 4.2e-06 |  |  |  |  |  | 
2 | C50U C68U | 2.09e-05 ± 3.8e-06 | 3e-05 ± 1.2e-05 |  |  |  |  | 
3 | C50U C61G C70U | 1.56e-05 ± 2.6e-06 |  |  |  |  |  | 
4 | A53C A64U | < 1e-05 |  | < 1e-05 |  |  |  | 
5 | A53C A64G | 0.00338 ± 0.00072 | 0.00249 ± 0.0011 | 7.76e-05 ± 1.7e-05 | 1710 ± 540 | 0.000218 ± 9.8e-05 | 0.00177 ± 0.00058 | 0.00277 ± 0.00054
6 | A53C C70U | 0.00487 ± 0.0012 | 0.00403 ± 0.0007 | 0.000105 ± 1.2e-05 | 2220 ± 670 | 0.000315 ± 2.6e-05 | 0.000893 ± 0.00013 | 0.00392 ± 0.00044
7 | A52G A53U | 0.000266 ± 2.2e-05 | 0.000176 ± 3.4e-05 |  | 1900 ± 430 |  | 6.4e-05 ± 1.5e-05 | 0.000219 ± 2.3e-05
8 | A52U U55G | 0.000246 ± 4.9e-05 | 0.000109 ± 1.5e-05 |  | 2150 ± 980 |  | 7.12e-05 ± 1.2e-05 | 0.000221 ± 2.4e-05
9 | A52G G60U | < 1e-05 |  |  |  | < 1e-05 | < 1e-05 | 
10 | A52U U54G | 0.000276 ± 3.6e-05 | 0.000107 ± 1e-05 |  | 3750 ± 860 |  | 4.52e-05 ± 9.2e-06 | 0.000207 ± 2.8e-05
11 | A53C G66U | 0.000484 ± 6.4e-05 | 0.000344 ± 8.3e-05 |  | 1770 ± 450 | 3.36e-05 ± 1.5e-05 | 0.000128 ± 3.6e-05 | 0.00039 ± 7.6e-05
12 | G51A A53C | < 1e-05 |  |  |  |  | < 1e-05 | 
13 | G51A A53G | 1.13e-05 ± 5.2e-06 |  |  |  |  |  | 
14 | G51C U54C | < 1e-05 | < 1e-05 |  |  |  | < 1e-05 | 
15 | A53C U65A | 0.000359 ± 3.3e-05 | 0.00025 ± 3.8e-05 |  | 1720 ± 320 | 3.15e-05 ± 1e-05 | 9.23e-05 ± 1.4e-05 | 0.000294 ± 3.7e-05
16 | A52C U69A | 1.76e-05 ± 5.9e-06 |  |  |  |  |  | 
17 | G51U G60C C70G | 1.22e-05 ± 2.5e-06 |  | < 1e-05 |  |  |  | 
18 | A53G A64G | 0.0648 ± 0.023 | 0.0373 ± 0.01 | 0.00117 ± 0.00012 | 2430 ± 1000 | 0.00264 ± 0.00067 | 0.0149 ± 0.0022 | 0.0493 ± 0.012
19 | A52G C70A | 6.21e-05 ± 4e-06 | 6.59e-05 ± 6.1e-06 | 2.42e-05 ± 1.2e-05 |  | 4.3e-05 ± 1.3e-05 | 5.8e-05 ± 6.8e-06 | 5.24e-05 ± 7.9e-06
20 | A52G C70U | 0.00261 ± 0.00024 | 0.000878 ± 0.00015 | 2.96e-05 ± 5.4e-06 | 3870 ± 600 | 0.000108 ± 3.7e-05 | 0.00037 ± 6.1e-05 | 0.00194 ± 0.00018
21 | A52U U56G | 0.000175 ± 4.1e-05 | 5.36e-05 ± 9.7e-06 |  | 5090 ± 2000 |  | 2.83e-05 ± 1.1e-05 | 0.000122 ± 2.5e-05

Row | Variant | kcat (glucosamine-6-phosphate [1]) [s⁻¹] | self-cleavage kobs at 2500 uM GlcN6P (glucosamine-6-phosphate [2]) [s⁻¹] | self-cleavage kobs at 40 uM GlcN6P (glucosamine-6-phosphate [3]) [s⁻¹] | KM (glucosamine-6-phosphate [4]) [µM] | self-cleavage kobs at 160 uM GlcN6P (glucosamine-6-phosphate [5]) [s⁻¹] | self-cleavage kobs at 640 uM GlcN6P (glucosamine-6-phosphate [6]) [s⁻¹] | self-cleavage kobs at 10000 uM GlcN6P (glucosamine-6-phosphate [7]) [s⁻¹]
22 | A53C U55G | 0.00572 ± 0.0016 | 0.00261 ± 0.00039 | 0.000162 ± 2.2e-05 | 1640 ± 730 | 0.000551 ± 9.1e-05 | 0.00138 ± 0.00025 | 0.00667 ± 0.00076
23 | G51U G60C | 1.97e-05 ± 5.9e-06 |  |  |  |  |  | 
24 | G51U C68U | < 1e-05 |  |  |  |  |  | 
25 | A52U C67U | 0.000336 ± 2.3e-05 | 0.000163 ± 2e-05 |  | 2300 ± 310 |  | 7.82e-05 ± 1e-05 | 0.00028 ± 2.8e-05
26 | G51U U55G | < 1e-05 |  |  | 76.4 ± 18 |  |  | < 1e-05
27 | C50U U55A | 8.88e-05 ± 8.3e-06 | 4.32e-05 ± 6.8e-06 |  | 2350 ± 570 |  | 2.43e-05 ± 9.1e-06 | 7.37e-05 ± 9.9e-06
28 | A52U A64G | 0.000348 ± 8.9e-05 | 0.00023 ± 3.8e-05 |  |  |  |  | 0.000262 ± 3.6e-05
29 | A53G G66U | 0.00201 ± 0.0004 | 0.00179 ± 0.00022 | 4.34e-05 ± 8.5e-06 | 1650 ± 540 | 0.000168 ± 3.4e-05 | 0.00056 ± 7.9e-05 | 0.00154 ± 0.00019
30 | G51A U69A | 1.6e-05 ± 2.9e-06 |  |  |  |  |  | 
31 | G51A C68G | 3.03e-05 ± 1.4e-05 |  |  |  |  |  | 
32 | A52G A64C C70A | 1.92e-05 ± 6.2e-06 |  |  |  |  |  | 
33 | G51A G62A | < 1e-05 |  | < 1e-05 |  |  |  | 
34 | G51U C67U | < 1e-05 |  |  |  |  |  | < 1e-05
35 | C50U G59U | < 1e-05 |  | < 1e-05 | 71.2 ± 32 |  | < 1e-05 | < 1e-05
36 | A53C G59U | < 1e-05 |  |  |  |  |  | 
37 | C50U U54G | 2.58e-05 ± 7.2e-06 | 4e-05 ± 1.6e-05 |  |  |  |  | 
38 | A52C C70U | 5.27e-05 ± 9.4e-06 | 5.72e-05 ± 1e-05 |  |  |  |  | 4.63e-05 ± 7.5e-06
39 | G51U C67A C71U | 2.47e-05 ± 3.5e-06 |  |  |  |  |  | 
40 | A52U U65G | 9.59e-05 ± 1.1e-06 |  | < 1e-05 | 9460 ± 180 | < 1e-05 |  | 4.93e-05 ± 1.8e-05
41 | A52C U55G | 5.71e-05 ± 5.1e-06 |  | < 1e-05 |  |  |  | 
42 | A52G C58A | 4.08e-05 ± 7.3e-06 | 4.01e-05 ± 9.9e-06 |  |  |  |  | 3.55e-05 ± 9.9e-06
